Results taken from article PMC4399498 (Nature communications, 2014).

What was measured:
KdpE-E216A = molecular target: T1, KdpE-E216A (Escherichia coli, UniProt P21866 1-225, E216A); assay: fluorescence anisotropy
T1 sequence: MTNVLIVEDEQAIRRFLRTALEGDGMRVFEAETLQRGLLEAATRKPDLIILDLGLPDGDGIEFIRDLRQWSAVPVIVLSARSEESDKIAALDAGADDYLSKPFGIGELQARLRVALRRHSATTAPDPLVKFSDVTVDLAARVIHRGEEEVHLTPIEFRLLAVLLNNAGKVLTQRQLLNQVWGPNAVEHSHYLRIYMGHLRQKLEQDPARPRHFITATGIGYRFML

KdpE = molecular target: T2, KdpE (Escherichia coli, UniProt P21866 1-225); assay: fluorescence anisotropy
T2 sequence: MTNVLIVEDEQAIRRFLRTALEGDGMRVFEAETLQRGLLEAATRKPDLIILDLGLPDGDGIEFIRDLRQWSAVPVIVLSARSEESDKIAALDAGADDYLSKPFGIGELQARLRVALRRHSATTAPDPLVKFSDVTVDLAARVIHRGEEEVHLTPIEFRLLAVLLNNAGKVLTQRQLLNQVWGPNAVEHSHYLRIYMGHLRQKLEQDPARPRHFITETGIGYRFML

B1: 24-bp KdpE site DNA, TAMRA (anisotropy) (dsDNA)
DNA 1: CATTTTTATACTTTTTTTACACCC
DNA 2: GGGTGTAAAAAAAGTATAAAAATG
Kd (KdpE-E216A): 3.5 ± 0.5 nM
Kd (KdpE): 30 ± 4 nM
